Test results published in patent US20240376454A1 (CORNELL UNIVERSITY, published 2024).
Positions count from the first letter of the chain named.

How the values were obtained:
[1] = biological target: T1, Pfu Cas3 HD L139A/HEL V418A (Pyrococcus furiosus, UniProt Q8U336 1-237, limits assumed); test: Strep-tag pull-down, SDS-PAGE
T1 construct: tags as for m8
T1 sequence 1: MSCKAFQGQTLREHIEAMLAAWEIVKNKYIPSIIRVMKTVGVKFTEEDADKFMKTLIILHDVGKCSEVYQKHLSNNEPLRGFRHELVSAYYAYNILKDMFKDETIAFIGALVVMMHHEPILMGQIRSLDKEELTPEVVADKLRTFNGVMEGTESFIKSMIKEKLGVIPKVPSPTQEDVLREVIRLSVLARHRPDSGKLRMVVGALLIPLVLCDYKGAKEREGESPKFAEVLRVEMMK
T1 sequence 2: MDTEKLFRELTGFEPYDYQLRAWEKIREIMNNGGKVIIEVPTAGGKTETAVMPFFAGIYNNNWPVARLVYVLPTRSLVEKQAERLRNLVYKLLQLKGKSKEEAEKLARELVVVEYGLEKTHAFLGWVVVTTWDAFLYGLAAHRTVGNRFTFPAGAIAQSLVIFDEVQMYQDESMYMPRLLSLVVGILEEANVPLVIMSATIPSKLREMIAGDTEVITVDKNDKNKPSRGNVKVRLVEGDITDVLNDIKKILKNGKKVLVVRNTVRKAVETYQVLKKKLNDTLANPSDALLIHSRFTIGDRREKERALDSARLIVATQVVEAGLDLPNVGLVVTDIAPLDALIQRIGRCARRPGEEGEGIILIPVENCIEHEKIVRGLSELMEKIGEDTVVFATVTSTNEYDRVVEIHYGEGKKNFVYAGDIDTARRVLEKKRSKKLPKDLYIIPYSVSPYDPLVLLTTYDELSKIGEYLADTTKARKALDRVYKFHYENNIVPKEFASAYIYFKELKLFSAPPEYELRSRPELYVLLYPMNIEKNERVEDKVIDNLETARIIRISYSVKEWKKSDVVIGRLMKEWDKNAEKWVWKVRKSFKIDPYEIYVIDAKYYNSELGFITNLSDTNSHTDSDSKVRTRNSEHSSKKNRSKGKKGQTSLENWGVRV
Source text: (§1) Binding of Pfu Cas3 effectively eliminates the severe domain movements in Cas8a NTD, and rigidifies the rest of the inner belly subunits in place (FIG. 3A-B). The lockdown effect is achieved through an extensive Cas3-Cas8a interface that spans across the NTD and CTD of Cas8a, which prevents the hinge motion in between the two domains. […] To validate structural observations, we mutagenized three conserved interface residues on Cas3 individually and in combination, two from the HD nuclease (V187E, L139A) and one from the helicase subunit (V418A). In Strep-tag pull-down experiments, each mutation reduced the affinity between Cas3 and Cascade, albeit to various extents. In particular, Cas3 HD V187E and HD L139A/HEL V418A completely disrupted Cas3 interaction with Cascade (FIG. 19). Thus, in embodiments, any Cas3 sequence that is at least 85% similar to a Pfu Cas3 may retain the described wild type amino acids.
(§2) 15 μg of strep-tagged Pfu Cascade and 15 μg of untagged Pfu Cas3 complex were mixed and incubated with 10 μL of strep resin at 4° C. for 30 min in a binding buffer (50 mM HEPES pH7.5, 10% glycerol, 300 mM NaCl), in a total assay volume of 50 μL. […]

Pfu Cas3 HD V187E = biological target: T2, Pfu Cas3 HD V187E (Pyrococcus furiosus, UniProt Q8U336 1-237, limits assumed); test: Strep-tag pull-down, SDS-PAGE
T2 construct: The pull-down method speaks of an 'untagged Pfu Cas3 complex'; also called Cas3 V187E
T2 sequence 1: T1 sequence 1 with A139L, V187E
T2 sequence 2: T1 sequence 2 with A418V
Source text: as §1, §2

binding result [1]: no binding
binding result (Pfu Cas3 HD V187E): no binding
B1: Pfu Cascade (other)
chain 1: not shown
chain 2: MDILLVCLRFPFFSVAKRSYQVRTSFLLPPPSALKGALAKGLILLKPEKYASSSLDEAALKAIKEIESKLVDIKAVSVAPLSPLIRNAFLLKRLRNLESGSNAEKSDAMRREYTFTRELLVAYIFKNLTQEEKNLYLKAAMLIDVIGDTESLATPVWASFVKPEDKKAPLAFSAPYTEIYSLLSSKIQAKGKIRMYIEKMRVSPEYSKTKGPQEEIFYLPIEERRYKRIVYYARTIYPPEVEKALTVDGEVLGIWIPKNSSESGSHHHHHHH
chain 3: MMYVRISGRIRLNAHSLNAQGGGGTNYIEITKTKVTVRTENGWTVVEVPAITGNMLKHWHFVGFVDYFKTTPYGVNLTERALRYNGTRFGQGETTATKANGATVQLNDEATIIKELADADVHGFLAPKTGRRRVSLVKASFILPTEDFIKEVEGERLITAIKHNRVDVDEKGAIGSSKEGTAQMLFSREYATGLYGFSIVLDLGLVGIPQGLPVKFEENQPRPNIVIDPNERKARIESALKALIPMLSGYIGANLARSFPVFKVEELVAIASEGPIPALVHGFYEDYIEANRSIIKNARALGFNIEVFTYNVDLGEDIEATKVSSVEELVANLVKMVGGKE
chain 4: MGGWIRNIGRYLSYLVDDTFEEYAYDVVDGIAKARTQEELLEGVYKALRLAPKLKKKAESKGCPPPRIPSPEDIEALEEKVEQLSNPKDLRKLAVSLALWAFASWNNCPKKGKGTEGGVE
notes: Ribonucleoprotein complex that also holds the chimeric crRNA (Pfu 5'-handle, E. coli 3'-handle); also called I-A Pfu Cascade; apo Pfu Cascade
